The record followed here is patent US20140179898A1.

This assay deals with IgG1-type humanized monoclonal antibody. Kind of assay: stepwise pH affinity chromatography (bound at pH 7.0, elution buffer pH 4.0), bought column.

Substance “HiTrap rProtein A FF (GE Healthcare) (from UniProt P38507 37-327)” displayed a pH of the antibody's elution peak of 3.7 pH.
